“And” between values parts separate entries of the source, which are not always exact repeats. Equal entries are not always repeated.
How the values were obtained:
[1] = molecular target: HAstV1 capsid spike domain, Avitag-biotinylated (human astrovirus 1 (HAstV1), UniProt O12792 433-645, biotin on the Avitag); assay: BLI; biosensors loaded with biotinylated HAstV1 spike (streptavidin, as in Fig. 1a); human or mouse FcRn in solution, 500, 250, 125, 62.5 nM; pH 7.0 (0.1 M sodium phosphate, 150 mM NaCl, 0.05% Tween-20), 25 °C; 1:1 model; average of three replicates; details: both partners purified
[2] = molecular target: T1, neonatal Fc receptor (FcRn), recombinant human ectodomain heterodimer of FcRn α-chain and β2 microglobulin, … (human, UniProt P55899;P61769, biotin on the AviTag (where FcRn was loaded on streptavidin biosensors)); assay: BLI; HAstV1 spike loaded, FcRn mutants in solution at 500, 250, 125, 62.5 and 31.25 nM; pH 7.0; 1:1 model; details: both partners purified
T1 construct: also called human FcRn; wild-type FcRn; source: CHO-S, electroporated, purified from the medium (StrepTrap XT); not shown: AviTag, C-terminal, kept

[3] = molecular target: T2, human FcRn mutant D153E (ectodomain heterodimer with β2M) (human, UniProt P55899 24-297; P61769 21-119, D153E); assay: as above; details: both partners purified
T2 construct: signal peptide in the construct; ectodomain of the FcRn α-chain (FCGRT gene), Met1-Ser297 of UniProt P55899; β-2-microglobulin, Met1-Met119 of UniProt P61769; source: CHO-S, electroporated, purified from the medium (StrepTrap XT)

[4] = molecular target: T3, human FcRn mutant T149N_G151T (ectodomain heterodimer with β2M) (human, UniProt P55899 24-297; P61769 21-119, T149N | G151T); assay: as above; details: both partners purified
T3 construct: signal peptide in the construct; ectodomain of the FcRn α-chain (FCGRT gene), Met1-Ser297 of UniProt P55899; β-2-microglobulin, Met1-Met119 of UniProt P61769; The change brings in the N-linked glycosylation site of mouse FcRn; source: CHO-S, electroporated, purified from the medium (StrepTrap XT)

[5] = molecular target: T1, neonatal Fc receptor (FcRn), …; assay: BLI; HIS1K biosensors loaded with 10x histidine-tagged spike, FcRn in solution at 1000, 500, 250, 125 and 62.5 nM; pH 7.0 buffer, 25 °C; 1:1 model; details: both partners purified
[6] = molecular target: T4, neonatal Fc receptor (FcRn), recombinant ectodomain heterodimer of FcRn α-chain and β2 microglobulin (human, UniProt P55899 24-297; P61769 21-119); assay: BLI; streptavidin biosensors loaded with Avitag-biotinylated HAstV1 spike K467H, dipped into FcRn; pH 5.0 (0.1 M sodium acetate, 150 mM NaCl, 0.05% Tween-20); 25 °C; 1:1 binding model; triplicate; details: both partners purified
T4 construct: signal peptide in the construct; ectodomain of the wild-type FCGRT gene (FcRn α-chain), human, UniProt P55899, Met1-Ser297; followed by a C-terminal thrombin cleavage site before the tags; β-2-microglobulin (β2M), human, UniProt P61769, Met1-Met119; Tags were removed with thrombin only for crystallization; nothing is said of their removal for BLI; also called human FcRn; wild-type FcRn; source: …

[7] = molecular target: T4, neonatal Fc receptor (FcRn), …; assay: BLI; streptavidin biosensors loaded with Avitag-biotinylated HAstV1 spike K467H (3 ug/mL), dipped into FcRn (2000 nM in the shown replicate); pH 7.0 (0.1 M sodium phosphate, 150 mM NaCl, 0.05% Tween-20); 25 °C; 1:1 binding model; triplicate; details: both partners purified
[8] = molecular target: the molecule itself; assay: crystal structure; FcRn-HAstV1 spike complex, tags removed, 3.4 Å; hanging drop, 0.1 M NaCl, 0.1 M Bis-Tris:HCl pH 6.1, 1 M ammonium sulfate
[9] = molecular target: T1, neonatal Fc receptor (FcRn), …; assay: BLI; streptavidin biosensors loaded with Avitag-biotinylated spike, FcRn in solution (500-62.5 nM for the wild type); pH 5.0 (0.1 M sodium acetate, 150 mM NaCl, 0.05% Tween-20), 25 °C; 1:1 model; details: both partners purified
[10] = molecular target: T1, neonatal Fc receptor (FcRn), …; assay: BLI; streptavidin biosensors loaded with Avitag-biotinylated spike, FcRn in solution (500-62.5 nM for the wild type); pH 7.0 (0.1 M sodium phosphate, 150 mM NaCl, 0.05% Tween-20), 25 °C; 1:1 model; details: both partners purified

B1: recombinant mouse FcRn (receptor)
chain 1: SETRPPLMYHLTAVSNPSTGLPSFWATGWLGPQQYLTYNSLRQEADPCGAWMWENQVSWYWEKETTDLKSKEQLFLEALKTLEKILNGTYTLQGLLGCELASDNSSVPTAVFALNGEEFMKFNPRIGNWTGEWPETEIVANLWMKQPDAARKESEFLLNSCPERLLGHLERGRRNLEWKEPPSMRLKARPGNSGSSVLTCAAFSFYPPELKFRFLRNGLASGSGNCSTGPNGDGSFHAWSLLEVKRGDEHHYQCQVEHEGLAQPLTVDLDSSARSS
chain 2: IQKTPQIQVYSRHPPENGKPNILNCYVTQFHPPHIEIQMLKNGKKIPKVEMSDMSFSKDWSFYILAHTEFTPTETDTYACRVKHASMAEPKTVYWDRDM
Q: With B1 as the binder, how does the Kd [1] read?
A: Its Kd is 58 nM.

Q: And the koff [1]?
A: The koff was 0.003 s⁻¹.

Q: And the kon [1]?
A: The kon was 52000 M⁻¹ s⁻¹.

B2: HAstV1 capsid spike domain, 10x histidine-tagged (domain or fragment)
chain: KVVLTFGAPMSPNANNKQTWVNKPLDAPSGHYNVKIAKDVDHYLTMQGFTSIASVDWYTIDFQPSEAPAPIQGLQVLVNISKKADVYAIKQFVTAQTNNKHQVTSLFLVKVTTGFQVNNYLSYFYRASATGDATTNLLVRGDTYTAGISFTQGGWYLLTNTSIVDGAMPPGWVWNNVELKTNTAYHMDKGLVHLIMPLPESTQMCYEMLTSIP
notes: capsid spike domain of the HAstV1 capsid protein (ORF2), UniProt O12792; also called HAstV1 spike; WT; source: E. coli T7Express, purified (HisPur cobalt resin); not shown: His10, C-terminal, kept
Q: What does the source list for B2?
A: Kd [2]: 230 nM; Kd [3]: 1600 nM; Kd [4]: 500 nM; Kd [5]: 270 nM; koff [5]: 0.014 s⁻¹; kon [5]: 52000 M⁻¹ s⁻¹

B3: HAstV1 capsid spike mutant K467H, Avitag-biotinylated (domain or fragment)
chain: KVVLTFGAPMSPNANNKQTWVNKPLDAPSGHYNVHIAKDVDHYLTMQGFTSIASVDWYTIDFQPSEAPAPIQGLQVLVNSSKKADVYAIKQFVTAQTNNKHQVTSLFLVKVTTGFQVNNYLSYFYRASATGDATTNLLVRGDTYTAGISFTQGGWYLLTNTSIVDGAMPPGWVWNNVELKTNTAYHMDKGLVHLIMPLPESTQMCYEMLTSIP
modifications: biotin on the Avitag
notes: also called HAstV1_K467H spike; HAstV1 spike K467H; source: T7Express E. coli, purified (HisPur cobalt resin); not shown: Avitag, C-terminal, kept
Q: B3 was tested. Which Kd [6] did it give?
A: Its Kd is 447 nM and 869 nM and 1040 nM.

Q: What about the koff [6] of the same binder?
A: Its koff is 0.033 s⁻¹ and 0.0561 s⁻¹ and 0.0625 s⁻¹.

Q: What about the kon [6] of the same binder?
A: The kon was 73900 M⁻¹ s⁻¹ and 64500 M⁻¹ s⁻¹ and 60200 M⁻¹ s⁻¹.

Q: And the Kd [7]?
A: The Kd was 19200 nM and 21500 nM and 26800 nM.

Q: What about the koff [7] of the same binder?
A: Its koff is 0.239 s⁻¹ and 0.259 s⁻¹ and 0.236 s⁻¹.

Q: And the kon [7]?
A: The kon was 12500 M⁻¹ s⁻¹ and 12000 M⁻¹ s⁻¹ and 8800 M⁻¹ s⁻¹.

B4: HAstV1 capsid spike domain, tag removed with thrombin (domain or fragment)
chain: KVVLTFGAPMSPNANNKQTWVNKPLDAPSGHYNVKIAKDVDHYLTMQGFTSIASVDWYTIDFQPSEAPAPIQGLQVLVNISKKADVYAIKQFVTAQTNNKHQVTSLFLVKVTTGFQVNNYLSYFYRASATGDATTNLLVRGDTYTAGISFTQGGWYLLTNTSIVDGAMPPGWVWNNVELKTNTAYHMDKGLVHLIMPLPESTQMCYEMLTSIP
notes: capsid spike domain of the HAstV1 capsid protein (ORF2), UniProt O12792; Form used for the SEC complex and the crystal; also called HAstV1 spike; source: E. coli T7Express, purified (HisPur cobalt resin), tag removed with thrombin, SEC; not shown: His10, C-terminal, cleaved
Q: How did the “stoichiometry N” value [8] turn out when B4 was run?
A: Its value is 2.

B5: HAstV1 capsid spike domain, Avitag-biotinylated (domain or fragment)
chain: KVVLTFGAPMSPNANNKQTWVNKPLDAPSGHYNVKIAKDVDHYLTMQGFTSIASVDWYTIDFQPSEAPAPIQGLQVLVNISKKADVYAIKQFVTAQTNNKHQVTSLFLVKVTTGFQVNNYLSYFYRASATGDATTNLLVRGDTYTAGISFTQGGWYLLTNTSIVDGAMPPGWVWNNVELKTNTAYHMDKGLVHLIMPLPESTQMCYEMLTSIP
modifications: biotin on the Avitag
notes: capsid spike domain of the HAstV1 capsid protein (ORF2), UniProt O12792; it may carry a further tag for the cobalt resin; also called biotinylated HAstV1 spike; Avitag-biotinylated HAstV1 spike; source: E. coli T7Express, purified (HisPur cobalt resin)
Q: How did the Kd [9] turn out when B5 was run?
A: The Kd was 102 nM.

Q: What about the Kd [10] of the same binder?
A: The Kd was 188 nM.

B6: HAstV8 capsid spike domain, 10x histidine-tagged (domain or fragment)
chain: GEQFRVLLTVGPPMAPNTANSQNWVNKTIVPPENQYTVKIGIDLEHYTTMQGFTPVESVSWYTADFQPSDEPSPIPGLYARVNNTKKADVYGVQQFKSSHTNNRHQITSVFLVRVTTSFQVINYTSYFIRGAESGSNVSNLKIRDQTYHTPLQFTQGKWYLLTSTVMHDGPTSSGWVWMNQELTNNIAYRVDPGMMYLITPPPAASQLYFELHTVLPQA
notes: capsid spike domain of the HAstV8 capsid protein (ORF2); also called HAstV8 spike; source: E. coli T7Express, purified (HisPur cobalt resin); not shown: His10, C-terminal, kept
Q: B6 was tested. Which Kd [5] did it give?
A: Its Kd is 390 nM.

Q: What about the koff [5] of the same binder?
A: Its koff is 0.03 s⁻¹.

Q: What about the kon [5] of the same binder?
A: The kon was 76000 M⁻¹ s⁻¹.

— PMC12583548 (Nature Communications, 2025)
